US20240269271A1

What was measured:
HVEM [1] = assay: competition ELISA, plates coated with BTLA, HVEM binding read out; control protein
HVEM [2] = assay: competition ELISA, plates coated with BTLA, HVEM binding read out

Substance: sequence of the V2 loop of HIV envelope linked to a His-tag
- percent inhibition of HVEM binding to BTLA (HVEM [1]): 45%

Substance: commercially available gD protein (ligand)
- percent inhibition of HVEM binding to BTLA (HVEM [2]): 90%
